Substitutions are numbered along the chain they refer to. Blank lines part the entries; values can stand above or below the binder they belong to.
What was measured:
Details in all cases: remark: other sources report otherwise
[1] = target: monomeric alpha-synuclein, P37840; assay: SPR, captured mAb
[2] = target: alpha-synuclein fibrils, P37840; assay: SPR, captured mAb
[3] = target: monomeric alpha-synuclein, P37840; assay: SPR, captured mAb; alpha-synuclein monomers
[4] = target: alpha-synuclein fibrils, P37840; assay: SPR, captured mAb; alpha-synuclein fibrils
[5] = target: monomeric alpha-synuclein, P37840; assay: SPR, captured mAb; steady-state model
[6] = target: monomeric alpha-synuclein, P37840; assay: SPR, captured mAb; heterogeneous ligand model
[7] = target: alpha-synuclein fibrils, P37840; assay: SPR single-cycle kinetics, antibody captured on anti-mouse chip, alpha-synuclein fibrils injected
[8] = target: monomeric alpha-synuclein, P37840; assay: SPR single-cycle kinetics, antibody captured on anti-mouse chip, monomeric alpha-synuclein injected

koff [1]: 0.012 s⁻¹
kon [1]: 3280 M⁻¹ s⁻¹
koff [2]: 0.000998 s⁻¹
kon [2]: 337000 M⁻¹ s⁻¹
Kd [3]: 3660 nM
Kd [4]: 3 nM
B1: ACI-7088-4317A4-Ab1 (antibody, V domains shown)
VH: EVQLQQSGAELVRPGASVKLSCTASGFNIKDDYMHWVKQRPEQGLEWIGWIDPENGDTEYASKFQGKATMTADTSSNTAYLQLSSLTSEDTAVYYCKTWGTTQALFPYWGQGTLVTVSA
VL: DIVMTQSQKFMYTSVGDRVSITCKASQNVGNAVGWYQQKAGQSPKLLIHSASNRYTGVPDRFTGTGSGTDFTLTINNMQSEDLADYFCQQYRSYPLTFGAGTKLELK

koff [1]: 0.00012 s⁻¹
kon [1]: 40500 M⁻¹ s⁻¹
Kd [3]: 3 nM
B2: ACI-7079-2503C6-Ab1 (antibody, V domains shown)
VH: DVQLQESGPGLVKPSQSLSLTCSVTGYSITSGYYWNWIRLFPGNKLEWLGYINYDGSNNFNPSLKNRISITRDTSKNQFFLKLNSVTSEDTATYFCLRGDWDWGQGTLVTVSA
VL: not shown

koff [1]: 0.0149 s⁻¹
kon [1]: 50800 M⁻¹ s⁻¹
koff [2]: 1.6e-08 s⁻¹
kon [2]: 7310 M⁻¹ s⁻¹
Kd [3]: 293 nM
Kd [4]: 0.002 nM
B3: ACI-7079-2603F3-Ab1 (antibody, V domains shown)
VH: EVQLVESGGGLVQPKGSLKLSCAASGFTFNTYAMHWVRQAPGKGLEWVARIRSKGSNYATYYADSVKDRFTISRDDSQSMLYLQMNNLKTEDTAMYYCVRGGGDSWFAYWGQGTLVTVSA
VL: QIVLTQSPAIMSASPGERVTMTCTASSSVSYMHWYQQKSGTSPKRWIYDTSKLASGVPARFSGSGSGASYTLTISSMEAEDAATYYCQQWNSNPPTFGGGTQLAIK

Kd [1]: 1.6 nM
koff [1]: 0.00043 s⁻¹
kon [1]: 264000 M⁻¹ s⁻¹
Kd [2]: 24.7 nM
koff [2]: 0.000427 s⁻¹
kon [2]: 17300 M⁻¹ s⁻¹
B4: ACI-7079-2501D10-Ab1 (antibody, V domains shown)
VH: EVQLVESGGGLVQPKGSLKVSCAASGFTFKTYAMHWVRQAPGKGLEWVARIRSENSNFAKYYADSVKDRFTISRDDSQSMLYLQMNNLKTEDTAMYYCVRGYNGSSLDYWGQGTTLTVSS
VL: B3 VL with S14F, T24S, S30N, S64G, A68T, T71S, S76N, N91R, Q102K, A104E

koff [2]: 4.16e-07 s⁻¹
kon [2]: 6940 M⁻¹ s⁻¹
Kd [4]: 0.06 nM
B5: ACI-7067-1113D10-Ab1 (antibody, V domains shown)
VH: EVQLVESGGGLVQPKGSLKLSCAASGFTFNTYALHWVRQAPGKGLEWVARIRSKSSNYATYYADSVKDRFTISRDDSQSMLYLQMNNLKTEDTGMYYCVRGGVSPFDYWGQGTTLTVSS
VL: B3 VL with R18K, T24S, A68T, T71S, A82S, N91S, S92N, Q102K, A104E

Kd [5]: 43.7 nM
koff [6]: 0.0265 s⁻¹
kon [6]: 55500 M⁻¹ s⁻¹
Kd [7]: 1.6 nM
koff [7]: 0.00024 s⁻¹
Kd [8]: 38.8 nM
koff [8]: 0.019 s⁻¹
Kd [2]: 2.9 nM
koff [2]: 0.000283 s⁻¹
kon [2]: 176000 M⁻¹ s⁻¹
B6: ACI-7067-1101C8-Ab2 (antibody, V domains shown)
VH: EVQLVESGGGLVQPKGSLKLSCAASGFSFNIYAMNWVRQAPGKGLEWVARIRSKSNNYATYYADSVKDRFTISRADSESMLYLQMNNLKTEDTAMYYCVRVGLRFYAMDYWGQGTSVTVSS
VL: DVLMTQTPLSLPVSLGDQASISCRSSQSIVHSNGNTYLEWYLQKPGQSPKLLIYKVSNRFSGVPDRFSGSGSGTDFTLKISRVEAEDLGVYYCFQGSQGPLTFGAGTKLELK

Kd [1]: 2.9 nM
koff [1]: 0.00084 s⁻¹
kon [1]: 291000 M⁻¹ s⁻¹
Kd [2]: 27.8 nM
koff [2]: 0.000528 s⁻¹
kon [2]: 19000 M⁻¹ s⁻¹
B7: ACI-7079-2501G2-Ab2 (antibody, V domains shown)
VH: B6 VH with S28N, I31T, S53T, Y58F, D64H, A75D, V101Q, R104A, F105Y
VL: B6 VL with A19V, S28T

koff [1]: 0.26 s⁻¹
kon [1]: 8.25e+07 M⁻¹ s⁻¹
Kd [3]: 3.2 nM
B8: ACI-8033-18D12-Ab1 (antibody, V domains shown)
VH: QVQLQQPGAELVKPGASVKMSCKASGYTFTSYWITWVRQRPGQGLDWIGDIYPGGGVTNYNEKFKTKATLTVDTSSSTAYMHLSSLTSEDSAVYFCATAQTTFAHWGQGTLVTVSA
VL: B6 VL with S28N, V30A, S32N, Q98H, G99V, L101R, A105G, L111I
